How the values were obtained:
[1] = target: HA-tagged SQSTM1-NUP214 fusion protein (human) (UniProt P35658); experiment: co-IP; nuclear lysates of stably transduced MEFs; anti-HA antibody overnight at 4°C, Protein G Dynabeads; washes with 150 and 175 mM NaCl buffer; immunoblot with anti-Crm1 and anti-HA, Crm1 signal/HA signal quantified on LI-COR Odyssey; cells untreated or treated with LMB (10 nM, 2 hours)
[2] = target: HA-tagged SQSTM1-NUP214^FGmut fusion protein (human) (UniProt P35658); experiment: as above

| percent reduction of Crm1 binding by LMB (10 nM, 2 hours) [1] [%] | percent reduction of Crm1 binding against SQSTM1-NUP214 [2] [%] | percent reduction of Crm1 binding by LMB (10 nM, 2 hours) [2] [%] | Substance |
| --- | --- | --- | --- |
| 58 | > 50 | – | Crm1 (chromosome region maintenance 1) (from UniProt Q6P5F9 1-1071) (natural protein) |
| – | – | 52 | Crm1 (chromosome region maintenance 1) (from UniProt Q6P5F9 1-1071) |

— article PMC7188244
